Measured values published in patent CN111234026A (BEIJING CHEST HOSPITAL CAPITAL MEDICAL UNIV; BEIJING …, dated 2020).
Where a chain is given by its changes, count along the chain named.

B1: BJRbL20 (antibody, V domains shown)
VH: QSVEESGGRLVTPGGSLTLTCTVSGIDLSSYDMGWVRQAPGKGLEWIGNIWSNGFTDYASWVNGRFTISKSSSTKMDLKMTSLTTEDTATYFCARGSSGYVGDIWGPGTLVTVSS
VL: DPVLTQTASSVSAAVGGTVTINCQASQSVYGNNELSWFQQKPGQPPKLLIYYASTLASGVPSRFKGSGSGTQFTLTISDLECDDAAIYYCQGGYLGNRAFGGGTEVVVKG
notes: also called 兔抗LAM单克隆抗体BJRbL20; LAM抗体
B2: BJRbL52 (antibody, V domains shown)
VH: B1 VH with G15T, I26F, D27S
VL: B1 VL with F38Y, P42S, Y52K, G66A, L95W
notes: also called 兔抗LAM单克隆抗体BJRbL52; LAM抗体
B3: BJRbL76 (antibody, V domains shown)
VH: QSVEESGGRLVTPGTPLTLTCTVSGFSLSTYAITWVRQAPGKGLEWIGYIWGGGNTDYASWAKGRFTISKTSTTVDLKITSPTIEDTATYFCGRNDLGYGSDIWGPGTLVTVSS
VL: DVVMTQTPSSKSVPVGDTVTINCQASQSVWGNKWLSWYQQKPGQPPKLLIYQASKLASGVPSRFSGSGSGTQFTLTISDVVCDDAATYYCGGHGTGNNDNPLGGGTMVEIKG
notes: also called 兔抗LAM单克隆抗体BJRbL76; LAM抗体

What was measured:
Assay in all cases: indirect ELISA, recombinant protein coated on the plate
结核分枝杆菌特异性重组蛋白38KD = molecular target: T1, 结核分枝杆菌特异性重组蛋白38KD (Mycobacterium tuberculosis, UniProt P9WGU1 24-374)
T1 sequence (looked up): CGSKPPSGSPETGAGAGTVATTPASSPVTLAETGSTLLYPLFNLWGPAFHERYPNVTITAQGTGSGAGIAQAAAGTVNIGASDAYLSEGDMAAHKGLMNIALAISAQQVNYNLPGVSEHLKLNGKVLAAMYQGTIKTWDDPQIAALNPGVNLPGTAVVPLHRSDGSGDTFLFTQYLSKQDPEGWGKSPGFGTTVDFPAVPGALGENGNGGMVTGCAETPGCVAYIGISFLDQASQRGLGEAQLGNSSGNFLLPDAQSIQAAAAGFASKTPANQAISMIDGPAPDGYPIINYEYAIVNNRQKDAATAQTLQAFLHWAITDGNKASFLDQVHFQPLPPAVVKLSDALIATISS

结核分枝杆菌特异性重组蛋白MPT32 = molecular target: T2, 结核分枝杆菌特异性重组蛋白MPT32 (Mycobacterium tuberculosis, UniProt P9WIR7 40-325)
T2 sequence (looked up): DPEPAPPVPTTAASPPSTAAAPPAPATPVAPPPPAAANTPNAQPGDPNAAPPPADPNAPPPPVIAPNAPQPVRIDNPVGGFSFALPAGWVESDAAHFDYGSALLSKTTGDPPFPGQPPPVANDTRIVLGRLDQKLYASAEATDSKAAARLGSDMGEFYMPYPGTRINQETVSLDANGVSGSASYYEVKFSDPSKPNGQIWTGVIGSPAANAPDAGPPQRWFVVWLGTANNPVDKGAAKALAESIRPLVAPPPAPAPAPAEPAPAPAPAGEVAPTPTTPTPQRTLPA

结核分枝杆菌特异性重组蛋白MPT64 = molecular target: T3, 结核分枝杆菌特异性重组蛋白MPT64 (Mycobacterium tuberculosis, UniProt P9WIN9 24-228)
T3 sequence (looked up): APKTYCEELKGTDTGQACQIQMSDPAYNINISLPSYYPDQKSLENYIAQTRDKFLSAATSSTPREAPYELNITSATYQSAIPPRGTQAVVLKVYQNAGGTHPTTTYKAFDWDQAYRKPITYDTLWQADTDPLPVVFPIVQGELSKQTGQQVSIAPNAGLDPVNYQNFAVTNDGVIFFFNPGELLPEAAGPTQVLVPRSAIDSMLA

结核分枝杆菌特异性重组蛋白Mtb81 = 结核分枝杆菌特异性重组蛋白Mtb81 (Mycobacterium tuberculosis, UniProt P9WK17 1-741)
Chain of 结核分枝杆菌特异性重组蛋白Mtb81 (P9WK17 whole entry): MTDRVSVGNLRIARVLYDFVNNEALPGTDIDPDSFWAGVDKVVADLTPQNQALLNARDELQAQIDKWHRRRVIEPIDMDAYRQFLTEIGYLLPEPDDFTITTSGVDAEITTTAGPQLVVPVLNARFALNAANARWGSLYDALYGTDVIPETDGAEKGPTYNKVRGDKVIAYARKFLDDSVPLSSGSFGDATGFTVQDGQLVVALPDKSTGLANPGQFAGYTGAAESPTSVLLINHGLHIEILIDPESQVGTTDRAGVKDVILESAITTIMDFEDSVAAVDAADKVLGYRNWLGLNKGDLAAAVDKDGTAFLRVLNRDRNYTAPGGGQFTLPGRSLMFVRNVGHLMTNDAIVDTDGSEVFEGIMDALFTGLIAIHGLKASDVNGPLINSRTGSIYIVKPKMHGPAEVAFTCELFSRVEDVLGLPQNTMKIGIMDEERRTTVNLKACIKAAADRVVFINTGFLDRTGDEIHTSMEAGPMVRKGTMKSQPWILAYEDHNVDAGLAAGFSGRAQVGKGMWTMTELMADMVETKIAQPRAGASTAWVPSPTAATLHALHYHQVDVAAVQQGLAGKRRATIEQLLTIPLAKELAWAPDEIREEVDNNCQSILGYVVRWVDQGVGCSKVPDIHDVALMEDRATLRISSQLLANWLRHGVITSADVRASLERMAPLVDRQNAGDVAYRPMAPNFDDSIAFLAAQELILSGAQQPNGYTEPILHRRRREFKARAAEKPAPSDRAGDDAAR

结核分枝杆菌特异性重组蛋白CFP10 = molecular target: T4, 结核分枝杆菌特异性重组蛋白CFP10 (Mycobacterium tuberculosis, UniProt P9WNK5 1-100)
T4 sequence (looked up): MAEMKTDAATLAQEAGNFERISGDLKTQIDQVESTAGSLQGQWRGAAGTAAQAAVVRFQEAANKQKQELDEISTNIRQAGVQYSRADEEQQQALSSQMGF

结核分枝杆菌特异性重组蛋白EspC = molecular target: T5, 结核分枝杆菌特异性重组蛋白EspC (Mycobacterium tuberculosis, UniProt P9WJD7 1-103)
T5 sequence (looked up): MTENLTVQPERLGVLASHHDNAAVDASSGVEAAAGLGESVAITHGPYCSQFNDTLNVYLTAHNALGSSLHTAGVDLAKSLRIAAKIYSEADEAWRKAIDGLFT

Row | Binder | binding result (结核分枝杆菌特异性重组蛋白38KD) | binding result (结核分枝杆菌特异性重组蛋白MPT32) | binding result (结核分枝杆菌特异性重组蛋白MPT64) | binding result (结核分枝杆菌特异性重组蛋白Mtb81) | binding result (结核分枝杆菌特异性重组蛋白CFP10) | binding result (结核分枝杆菌特异性重组蛋白EspC)
1 | B1 | no binding (tested: protein coated at 5μg/ml) | no binding (tested: protein coated at 5μg/ml) | no binding (tested: protein coated at 5μg/ml) | no binding (tested: protein coated at 5μg/ml) | no binding (tested: protein coated at 5μg/ml) | no binding (tested: protein coated at 5μg/ml)
2 | B2 | no binding (tested: protein coated at 5μg/ml) | no binding (tested: protein coated at 5μg/ml) | no binding (tested: protein coated at 5μg/ml) | no binding (tested: protein coated at 5μg/ml) | no binding (tested: protein coated at 5μg/ml) | no binding (tested: protein coated at 5μg/ml)
3 | B3 | no binding (tested: protein coated at 5μg/ml) | no binding (tested: protein coated at 5μg/ml) | no binding (tested: protein coated at 5μg/ml) | no binding (tested: protein coated at 5μg/ml) | no binding (tested: protein coated at 5μg/ml) | no binding (tested: protein coated at 5μg/ml)
